From patent publication CN113072642A (FUZHOU MAIXIN BIOTECHNOLOGY DEV CO LTD, dated 2021)

Molecular target: T1, OCT3/4蛋白 (in tissue sections, immunohistochemistry) (human, UniProt Q01860 1-360, limits assumed)
T1 construct: Endogenous antigen in tumour and normal tissue chips; also called OCT3/4抗原
Test: immunohistochemistry on tumour tissue chip

T1 sequence (Q01860 whole entry): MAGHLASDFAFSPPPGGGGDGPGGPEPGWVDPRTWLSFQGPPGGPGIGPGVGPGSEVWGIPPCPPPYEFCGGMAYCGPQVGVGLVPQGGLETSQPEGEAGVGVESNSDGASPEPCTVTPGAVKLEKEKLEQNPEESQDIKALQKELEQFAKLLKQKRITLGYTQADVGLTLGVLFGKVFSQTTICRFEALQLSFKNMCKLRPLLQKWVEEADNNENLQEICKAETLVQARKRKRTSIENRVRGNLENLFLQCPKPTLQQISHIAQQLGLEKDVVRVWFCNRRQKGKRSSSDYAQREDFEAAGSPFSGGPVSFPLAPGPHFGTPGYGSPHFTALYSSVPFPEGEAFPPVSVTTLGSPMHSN

- binding result: binds
B1: 41B1细胞株所分泌的抗OCT3/4蛋白单克隆抗体 (antibody, mouse IgG2b, V domains shown)
VH: VKLQESGGGLVKPGGSLKLSCTASGFTFSTYAMSWVRQTPEKRLEWVAAINSNGGNTYYPDTVKDRFTISRDNAKNTLYLQMSSLRSDDTALYYCARDGYDYWGQGTTLTVSS
VL: DIVMTQDELSLPVSLGDQASISCRSSQSLVHSNGVTYLFWHLQRPGQSPKLLIYRVSNRFSGVPDRFSGSGSGTDFTLKISRVEAEDLGVYFCFQGTHVPFTFGTGTKLEIK
notes: also called OCT3/4(41B1); 41B1分泌的OCT3/4
